These results are taken from patent publication US20210122827A1.

This experiment deals with human GLP-1 receptor (human) (UniProt P43220). The experiment is described as follows: cell-based or functional assay.
Chain of human GLP-1 receptor (human) (P43220 24-463): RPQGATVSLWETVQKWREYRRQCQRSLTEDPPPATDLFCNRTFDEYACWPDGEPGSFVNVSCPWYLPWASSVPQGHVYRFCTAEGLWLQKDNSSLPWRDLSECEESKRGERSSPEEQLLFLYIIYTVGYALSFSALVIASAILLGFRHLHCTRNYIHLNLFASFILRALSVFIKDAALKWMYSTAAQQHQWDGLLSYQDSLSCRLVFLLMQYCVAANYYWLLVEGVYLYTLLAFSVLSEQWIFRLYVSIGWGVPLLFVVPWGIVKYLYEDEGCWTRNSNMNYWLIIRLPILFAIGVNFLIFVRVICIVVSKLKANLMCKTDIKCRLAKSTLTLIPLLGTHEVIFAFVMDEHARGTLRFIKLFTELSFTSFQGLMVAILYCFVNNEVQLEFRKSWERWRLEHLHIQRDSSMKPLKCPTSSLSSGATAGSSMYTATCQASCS

With “GMA102 (proprietary fusion protein of GLP-1R antibody and GLP-1)”, the EC50, CRE-Luciferase reporter gene assay on CHO-DHFR- cells co-expressing hGLP1R was 16 pM.
